Results published in the nanobody polyreactivity screen of Harvey et al. (2022).

Test: yeast display, Sf9 membrane polyspecificity reagent, FACS + sequencing; frameworks hold sequencing errors
Method in brief: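 In a synthetic yeast display library (Saccharomyces cerevisiae BJ5465), nanobody expression was induced with galactose for 36–48 hours. FACS gates were set low and high (top ~1%) using anti-HA fluorescence for expression and streptavidin fluorescence for binding of the Sf9 membrane reagent. Each polyreactivity label is drawn from the gate of origin.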

Sequence	polyreactivity (PSR sort gate)
QVQLVESGGGLVQAGGSLRLSCAASGSTFYKYAMGWYRQAPGKERELVAVITKSGGSTYYADSVKGRFTISRDNEKNTVYLQMNSLKPEDTAVYYCAAEDHYGYNSGYDYWGQGTQVTVSS	high polyreactivity
QFQLVESGGGLVQAGGSLRLSCAASGFIFFNYAMGWYRQAPGKERELVASINWSTGSTYADSVKGRFTISRDNAKNTVYLQMNSLKPEDSAVYYCNTDHRRVAIPGGYWGQGTQVTVSS	low polyreactivity
QVQLVESGGGLVQAGGSLRLSFAASGFIFDYYAMGGYRQEPGKDRELVAAISSSGRTSYADSVKGRFTISRDNAKNTVYLQMNSLKPEDTAVYYCNATWRWTRRGYDYWGQGTQVTVSS	low polyreactivity
QVQLVESGGGLVQAGGSLRLSCAASGSIFYENAMGWYRQAPGKERELVAAISRSGGSTYYADSVKGRFTISRDNAKNTVYLQMNSLKPEDTAVYYCAADVYVFIGDYWGQGTQVTVSS	low polyreactivity
QVQIVESGGGLVQAGGSLRLTCAASGSIFTVYAMGWYRQEPGKERELVAAISSGASTNYADTVKGRFTISRDNATNTVYLQMNSLKPEDTAVYYFAARLYARRLYDYWGQGSQVTVSS	low polyreactivity
QVQLVESGGGLVQAGGSLRLSCAASGFTFWKYTMGWYRQAPGKERELVATISSSSGSTTYADSVKGRFTISRDNAKNTVYLQMYSLKPEDTAVYYCNVDDPFYSGVVEFDYWGQGTQVTVSS	low polyreactivity
QVQLVESGGGLVQAGGSLRLSCAASGGIFGHYGMGWYRQAPGQERELVASISWNGGSTYYADSVKGRFTSSRDNAKNTVYLQMNSLKPEDTAVYYCAARAIWLRYVGYTYYYWGQGTQVTVSS	high polyreactivity
HVQLVESGGGLVQAGGSLRLICAASGGTFAGYSMGWYRQAPGKDRELVAAITYRSSTTYYADSVKGRFTISRDNAKNTVYLQMNSLKPEDTAVYYCAARTRGTGRNLDYWGQGTQVNVSS	high polyreactivity
QVHLVESGGGLVQAGGSLRLSCAASGFIFVRNAMGWYSQAPGKEREFVAAITRSGGSTYYADSVKVRFTISRDNAKNTVYLQMYSLKPEDTAVYYCAVLYHSRDSYTYRDEDYWGQGTQVTVSS	low polyreactivity
QVQLVESGGGLVQAGGSLRLTCAASGRTFRGYVKAWSRQAPGKERELVAAISWSGGSTYYADSVKGRFTISRDNAKNSVYLQMKSLKPEDTAVYYCAARRYSYVGGQGSDYWGQGTLVTVSS	high polyreactivity
QVQLVESGGGLVQAGGSLRLICAASGSIFTYYTMGWYRQAPGKERELVAAIRWSAGRTYYADSVKGRFTISRDNAKNSVYLQMNSLKPEDTSVYYCAAAERLRHGLKFDYWGQGTQVTVSS	high polyreactivity
QVQLVESGGGLVQAGGSLRLSCAASGSTFAPNTMGWYRQAPGKERELVAGITDGTITTYADSVKGRFTISRDNAKNTVYLQMNSLKPEDTAVYYCATRQSWYPRWMDYWGQGTQVTVSS	high polyreactivity
QVQLVESGGGLLQAGGSLRLSCAASGSIFTHNAMGWYRQAPGKERELVAAISSGGSTNYADSVKGRFTISRDNAKNTVYLHMNSLKPEDTAVYYCAATDQKLSLDYSSYEYWGQGTQVTVSS	low polyreactivity
QVQLVESGGGLVQAGGSLRLSCAASGRIFTIYSMGWYRQAPGKERELVATISKSGGITYYADSVKGRFTISRDNAKNTVYLQMNSLKPEDTAVYYCAAAWYYSSRGFHATWGHDYWGQGTQVTVSS	low polyreactivity
QVQLVESGGGLVQAGGSLRLSCAASGFTFQENAMGWYRQAPGKERELVAAISKSGGITYYADSVKGRFTISRDNAKNTVYLHMNSLKPEDTAVYYCNKGNAYVVYTSGYDYWGQGTQVTVSS	low polyreactivity
QVQLVESGGGLVQAGGSLRLSCAASGFTFKYYAMGWYRQAPGKEREFVAAISRSGGSTTYADSVKGRFTISRDNAKNTVYLQMNSLKPEDSAVYYCAVAYYTAYTPRDGEYWGQGTQVTVSS	high polyreactivity
QVQLVESGGGLVQAGGSLRLSCAASGSTFRPYVMGWYRQAPGKERELVAAISWRGGTTYYADSVKGRFTISRDNAKNTVYLQMNSLKPEDTAVYYCAARGDQGVPVARRYDYWGQGTQVTVSS	high polyreactivity
QVQLVESGGGLVQAGGSLRLSCAASGFTLEYYAMGWYRQAPGKERELVAAITNGASTNYADSVKGRFTISRDNAKNTVYLQMNSLKPEDTAVYYDYWGQGTQVTVSS	low polyreactivity
QVQLVESGGGLVQAGGSLSLSSAASGRTFGIYAMGWYRQEPGKERELVAAITWSGDSTYYADSVKGRFTISRDNAKNTVYLQLNSLKPEDTAVDYCAADYVGVTYVRYDYWGQGTQVTVSS	low polyreactivity
QVQLVESGGGLVQAGGSLRLSCAASGSTFFHYAMGWYRQAPGKERELVAAISTGGTTYYADSVKGRFTISRDNAKNTVYLQMNSLKPEDSAVYYCAAEAYGLSGLYYYWGQCTQVTVSS	high polyreactivity
QVQLLESGGGLVQAGGSLRLSCAASGSTFTNYAMGWYRQAPGKERELVAAITSGGSTYYADSVKGRCTISRDNAKNTVYLQMNSLKPEDTAVYYCNAVYFSEYDSWGQGTLVTVSS	low polyreactivity
QVQLVESGGGLVQAGGSLRLICAASGYIFKHNAMGWYRQAPGKERELVAAISWSGVSTYYADSVTGRFTISRDNAKNTVYLQMNSLKPEDTAVYYCNAPAIAPIYDYWGQGTQVTVSS	low polyreactivity

Sequence	polyreactivity (PSR sort gate)
QVQLVESGGGLVQAGGSLRLSCAASGFIFQDYALGWYRQAPGKERELVAAISRSTGSTYYADSVKGRFTISRDNPKNTVYLQMNSLKPEDTAVYYCAKPRSWGYNWGQGTQVTVSS	high polyreactivity
QVQLVESGGGLVQAGGSLRLICAASGFTFSTNAMGWYRQAPGKERELVAAITKSGGRTYYADSVKGRFTISRDNAKNTVYLQMNSLTPEDTAVYYCAAEVDRKGFYWYYWGQGTQVTVSS	high polyreactivity
QVQLVESGGGLVQAGGSLRLSCAASGFIFGLYAMGWYRQAPGKERELVAAISWSGGSTYYADSVKGRFTISRDNAKNTVYLQMNSLKPEDTAVYYCAKRGGYGYEYYYWGQGTQVTVSS	high polyreactivity
QVQLVESGGGLVQAGGSLRLSCAASGITFNYYAMGWYRQAPGKERELVAAISLSGGRTRYADSVKGRFTISRDNAKNTVYLQMNSLKPEDTAVYYCAAYSFRYVPWPDGMGYWGQGTQVTVSS	high polyreactivity
QVQLVESGGGLVQAGGSLRLSCAASGFTFLYNAMGWYRQAPGKERELVASIRTGTGTYYADSVKGRFTISRDNAKNTVYLQMNSLKPEDTAVYYCAAENFYPYTYYASDYWGQGTQVTVSS	high polyreactivity
QVQLVESGGGLVQAGGRLRLSCAASGRIFYLNAMGWYRQAPGKERELVAAINTSGDSSYYADSVKGRFTISRDNAKNTVYLQMNSLKPEDTAVYYCAAYVIGPDQFIYDYWGQGTQVTVSS	low polyreactivity
QVQLVESGGGLVQAGGSLRLSCAASGNTFGFYAMGWYRQAPGKERELVAGITSGDSTYYADSVKGRFTISRDNAKNTVYLQMNSLKPEDTAVYYCATAPYVTSRRYGPYEYWGQGTQGTVSS	low polyreactivity
QVQLVESGGGLVQAGGSLRLICAASGSIFSENTMGWYRQAPGKERELVAAISWSGGSTKYADSVKGRFTISRDNAQITVYLQMNCLKPEDTSVYNCGTDIHDDTGAYDYWGQCTQVTVSS	low polyreactivity
QLQLVESGGGLVQAGGSLRLSCAASGSTISGYAMGWYRQAPGKARELVARINSGGGRTYYADSVKGRFTISRDNAKNTVYLQMNSLKREDTEVYYFAAYSKPFPYVSTIRYYYWGQGTQVTVSS	high polyreactivity
QVQLVESGGGLVQAGGSLRLSCAASGFTFSPNAMRWYRQAPGKERELVAAIDWSGDRTYYADSVKGRFTISRDNAKNTVYLQMNSLKPEDTAVYYCAADIRDPGVPMDYWGQGTQVTVSS	low polyreactivity
QDQLVESGGGLVQAGGSLRLSCAASALTFVRYAMGWYRQAPGKERELVAAISSGGSTNYADSVKGSFTISRDNAKNTVYLQMNSLKPEDSAVYYCAAVRYRYPHTMYYWGLGTQVTVSS	high polyreactivity
HVQLVESGGGLVQAGASLRLSCAASGRTFGRYAMGWSRQAPGKERELVAAIRSGGSTYYADSVKGRFTISRDNAKNTVYLQMNSLNPEDPAVYYCAADIARHLTGFAYDRLDYCGQGTQVTVSS	low polyreactivity
QVQLVESGGGLVQAGGSLRLSCAASGITLSTYAMGWYRPAPGKERELVATITGNGDRTYYADSVKGRFTISRDNAKNTVYLQMNSLKPEDTAVYYCAKDSPGDGIGYGYWGQGTQVTVSS	low polyreactivity
QVQHVESGGGLVQAGGSLRLSCAASGSTFDDNTMGWYRQATGKERELVAAITRSGGSTYYADSVKGRFTISRDNAKNTVYLQMNSLKPEDTAVYYCATYPYSPYYYVYVEPYDYWGQGTQVTVSS	low polyreactivity
QVQLVESGGGLVQAGGSLRLSCAASGINFVLYAMGWYRQAPGKERELVAAITSGGRTYYADSVNGRFTISRDNAKNTVYLQMISLKPEDTAVYYCADNYFTQRLWFDYWGQGTQVSVSS	high polyreactivity
QVQLVELGGGLVQAGGILRLSCAASGSIFSWNDMGWYRQAPGKERELVAAITSGGSTYYADSVKGRFTISRDNAKNTVYLQMNSLKPEDTAVYYCAAGQDLHDFDYWGQGTQVTVSS	low polyreactivity
QVQLVESGGGLVQAGGSLRLSCAASGSTFVVNAMGWYRQAPGKERELVAAITQSGGSTFYADSVKGRFTISRDNAKNTVYLQMNSLKPEETAVYYWGHGTQVTVSS	low polyreactivity
QVQLVESGGGLVQAGGRLRLSCAASGIIFSYYAMGWYRQAPGKERELVAAISWGGGSTYYADSVKGRFTISRDYAKNTVYLQMNSLKPEDTAVYYCAADYFDFFTGYEMGYWGQGTKVTVSS	high polyreactivity
QVQLVESGGGLVQAGGSLRLSCAASGGIFVRYAMGVYRQAPGKERELVAAITGTGSSTYYADSVKGRFTISRDNAKNTVYLQMNSLKPEDTAVYYCAAARYSNYGYWGQGTQVTVSS	high polyreactivity
QVQLVESGGGLVQAGGSLRLSCAASGRIFHFNTMGWYRQAPGKERELVAAITSSGGSTNYADSVKGRFTISRDNAKNTVYLQMNSLKPEDTAVYYCNADTGAADYFDFDYWGQGTQVTVSS	low polyreactivity
QVQLVESGGGLVQAGGSLRLSCAASGFISPSYAMGWYRPAPGKERELVAAIRSSDGSTYYADSVKGRFTISRDNAKNTVYLQMNSLKPEDTAVYYCAAGGSYYRDDYWGQGTQVTVSS	low polyreactivity
